Assay results: the supplement of paper PMC7877785
± gives the uncertainty stated by the source.

Test: self-splicing fitness, log relative to wild type (ln ratio); higher = more splicing; Tetrahymena group I intron in knt gene, E. coli kanamycin selection, DiMSum; sequences stand for … in CUCUCU…GGAGGGAAAAGUUAUCAGGCAUGCACCUGGUAGCUAGUCUUUAAACCAAUAGAUUGCAUCGGUUUAAAAGGCAAGACCGUCAAAUUGCGGGAAAGGGGUCAACAGCCGUUCAGUACCAAGUCUCAGGGGAAACUUUGAGAUGGCCUUGCAAAGGGUAUGGUAAUAAGCUGACGGACAUGGUCCUAACCACGCAGCCAAGUCCUAAGUCAACAGAUCUUCUGUUGAUAUGGAUGCAGUUCACAGACUAAAUGUCGGUCGGGGAAGAUGUAUUCUUCUCAUAAGAUAUAGUCGGACCUCUCCUUAAUGGGAGCUAGCGGAUGAAGUGAUGCAACACUGGAGCCGCUGGGAACUAAUUUGUAUGCGAAAGUAUAUUGAUUAGUUUUGGAGUACUCGUGGUCG
In short: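 Fitness was computed with DiMSum as the error-weighted combination of replicate fold changes, kanamycin versus none, each normalised to wild type. The library randomised all eight intron nucleotides of the P1ex region, with the intron placed in the knt kanamycin-resistance gene on pET-22b(+) in E. coli BL21(DE3). Six replicate transformations were grown overnight at 37°C or 30°C on LB agar with or without 25 μg/mL kanamycin, plus 100 μg/mL carbenicillin, 50 μM IPTG and 0.2% rhamnose. Pooled colonies were amplicon-sequenced on an Illumina HiSeq 2500.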

Sequence | self-splicing fitness (ln) (30 °C) | self-splicing fitness (ln) (37 °C)
UGAAAGCAAUAUUACGGAGG | -3.75 ± 0.2 | -2.72 ± 0.26
UGAAAGCAAUAUUACGGCAC | -3.23 ± 0.16 | -1.48 ± 0.14
UGAAAGCAAUAUUACGGCCA | -0.0769 ± 0.21 | 0.0533 ± 0.28
UGAAAGCAAUAUUACGGCUA | 0.376 ± 0.092 | 0.259 ± 0.11
UGAAAGCAAUAUUACGUAUC | -3.86 ± 0.28 | -2.38 ± 0.25
UGAAAGCAAUAUUACGUGAU | -0.954 ± 0.077 | -1.45 ± 0.13
UGAAAGCAAUAUUACGUGCC | -0.125 ± 0.12 | -0.826 ± 0.15
UGAAAGCAAUAUUACGUUAA | -1.45 ± 0.089 | -0.938 ± 0.09
UGAAAGCAAUAUUACGUUAG | -1.1 ± 0.086 | -0.448 ± 0.096
UGAAAGCAAUAUUACGUUCU | -1.37 ± 0.11 | -0.484 ± 0.1
UGAAAGCAAUAUUACGUUGA | -3.13 ± 0.17 | -1.23 ± 0.15
UGACAGCAAUAUUACGAAGA | -3.28 ± 0.27 | -0.756 ± 0.16
UGACAGCAAUAUUACGAGCA | -0.681 ± 0.051 | 0.236 ± 0.064
UGACAGCAAUAUUACGAGGG | -3.73 ± 0.44 | -2.11 ± 0.35
UGACAGCAAUAUUACGAUGC | -3.94 ± 0.28 | -2.72 ± 0.28
UGACAGCAAUAUUACGAUUG | -0.875 ± 0.061 | -0.525 ± 0.067
UGACAGCAAUAUUACGCAAU | -2.38 ± 0.12 | -1.84 ± 0.16
UGACAGCAAUAUUACGCACG | -0.996 ± 0.093 | -0.312 ± 0.14
UGACAGCAAUAUUACGCCCA | 0.217 ± 0.12 | 0.269 ± 0.16
UGACAGCAAUAUUACGCCCG | -0.421 ± 0.12 | 0.601 ± 0.2
UGACAGCAAUAUUACGCCGA | -1.44 ± 0.17 | -0.0813 ± 0.17
UGACAGCAAUAUUACGCGCC | -1.63 ± 0.12 | -0.153 ± 0.15
UGACAGCAAUAUUACGCGCG | -1.15 ± 0.1 | -0.132 ± 0.11
UGACAGCAAUAUUACGCUGC | -4.45 ± 0.25 | -2.65 ± 0.18
UGACAGCAAUAUUACGGAAG | -2.29 ± 0.11 | -1.19 ± 0.12

Sequence | self-splicing fitness (ln) (30 °C) | self-splicing fitness (ln) (37 °C)
UGACAGCAAUAUUACGGACA | -0.474 ± 0.08 | 0.431 ± 0.12
UGACAGCAAUAUUACGGCAU | -1.88 ± 0.073 | -0.478 ± 0.087
UGACAGCAAUAUUACGGCGU | -2.71 ± 0.15 | -1.67 ± 0.16
UGACAGCAAUAUUACGGGAG | -1.59 ± 0.062 | -0.0844 ± 0.061
UGACAGCAAUAUUACGGGCA | -0.0919 ± 0.079 | 0.689 ± 0.093
UGACAGCAAUAUUACGGGCG | -0.223 ± 0.1 | 0.3 ± 0.11
UGACAGCAAUAUUACGGGUG | -0.383 ± 0.052 | -0.732 ± 0.074
UGACAGCAAUAUUACGGUAC | -4.6 ± 0.36 | -2.85 ± 0.38
UGACAGCAAUAUUACGGUCU | -1.58 ± 0.065 | -0.946 ± 0.072
UGACAGCAAUAUUACGUACA | -0.21 ± 0.087 | 0.281 ± 0.12
UGACAGCAAUAUUACGUACU | -0.423 ± 0.064 | 0.165 ± 0.085
UGACAGCAAUAUUACGUAGC | -4.08 ± 0.29 | -2.28 ± 0.28
UGACAGCAAUAUUACGUCAA | -2.37 ± 0.18 | -0.896 ± 0.11
UGACAGCAAUAUUACGUCCA | -0.629 ± 0.061 | 0.245 ± 0.1
UGAGAGCAAUAUUACGACUU | -3.87 ± 0.22 | -2.31 ± 0.18
UGAGAGCAAUAUUACGAGUC |  | -3.22 ± 0.47
UGAGAGCAAUAUUACGCAUA | -3.24 ± 0.44 | 
UGAGAGCAAUAUUACGCCGA | -1.96 ± 0.36 | 
UGAGAGCAAUAUUACGCGAG | -3.56 ± 0.37 | -2.34 ± 0.22
UGAGAGCAAUAUUACGCGCC | -1.44 ± 0.33 | -1.09 ± 0.47
UGAGAGCAAUAUUACGCGUA | -2.26 ± 0.26 | -2.4 ± 0.31
UGAGAGCAAUAUUACGGAAA |  | -1.92 ± 0.39
UGAGAGCAAUAUUACGGAAU |  | 1.01 ± 0.35
UGAGAGCAAUAUUACGGAGC | -2.21 ± 0.18 | -1.94 ± 0.19
UGAGAGCAAUAUUACGGCUA | -1.67 ± 0.25 | -0.532 ± 0.35

Sequence | self-splicing fitness (ln) (30 °C) | self-splicing fitness (ln) (37 °C)
UGAGAGCAAUAUUACGGGGC | -2.38 ± 0.39 | -2.17 ± 0.46
UGAGAGCAAUAUUACGGGUC |  | -1.33 ± 0.45
UGAGAGCAAUAUUACGGGUU | -2.45 ± 0.24 | -2.85 ± 0.31
UGAGAGCAAUAUUACGGUCG | -1.56 ± 0.083 | -0.464 ± 0.11
UGAGAGCAAUAUUACGGUGA | -2.54 ± 0.36 | -2.73 ± 0.44
UGAGAGCAAUAUUACGGUGU | -2.98 ± 0.24 | -2.36 ± 0.29
UGAGAGCAAUAUUACGUAAG | -3.27 ± 0.23 | -1.67 ± 0.21
UGAGAGCAAUAUUACGUACC | -2.65 ± 0.36 | 
UGAGAGCAAUAUUACGUCCU | -3.05 ± 0.24 | -2.57 ± 0.49
UGAGAGCAAUAUUACGUGAG | -2.43 ± 0.14 | -1.83 ± 0.2
UGAGAGCAAUAUUACGUGGU | -2.67 ± 0.14 | -2.61 ± 0.2
UGAGAGCAAUAUUACGUGUA | -2.07 ± 0.13 | 
UGAGAGCAAUAUUACGUGUU | -3.49 ± 0.25 | -1.36 ± 0.14
UGAUAGCAAUAUUACGAAAG | -3 ± 0.14 | -1.67 ± 0.15
UGAUAGCAAUAUUACGAAGU | -3.67 ± 0.25 | -3.22 ± 0.26
UGAUAGCAAUAUUACGAAUA | -3.62 ± 0.47 | -0.595 ± 0.2
UGAUAGCAAUAUUACGACUU | -0.653 ± 0.17 | -0.431 ± 0.12
UGAUAGCAAUAUUACGAUUU | -1.76 ± 0.1 | -1.13 ± 0.12
UGAUAGCAAUAUUACGCACC | -1.02 ± 0.15 | -0.277 ± 0.22
UGAUAGCAAUAUUACGCAGA | -3.31 ± 0.24 | -1.38 ± 0.11
UGAUAGCAAUAUUACGCAGG | -3.38 ± 0.24 | -2.27 ± 0.36
UGAUAGCAAUAUUACGCCAA | -3.37 ± 0.27 | -1.85 ± 0.15
UGAUAGCAAUAUUACGCCAC |  | -0.614 ± 0.29
UGAUAGCAAUAUUACGCCCG | 0.00499 ± 0.21 | -0.455 ± 0.2
UGAUAGCAAUAUUACGCCUA | -0.439 ± 0.15 | -0.227 ± 0.16

Sequence | self-splicing fitness (ln) (30 °C) | self-splicing fitness (ln) (37 °C)
UGAUAGCAAUAUUACGCGGG | -3.28 ± 0.31 | -1.7 ± 0.25
UGAUAGCAAUAUUACGCUAA | -1.82 ± 0.2 | -0.0947 ± 0.25
UGAUAGCAAUAUUACGCUUC |  | -2.45 ± 0.35
UGAUAGCAAUAUUACGCUUG | -0.924 ± 0.091 | 0.0889 ± 0.14
UGAUAGCAAUAUUACGGAGA | -2.83 ± 0.33 | -1.68 ± 0.42
UGAUAGCAAUAUUACGGAUG | -1.33 ± 0.1 | -0.978 ± 0.12
UGAUAGCAAUAUUACGGCAG | 0.188 ± 0.17 | 0.0746 ± 0.18
UGAUAGCAAUAUUACGGCCA | -0.243 ± 0.14 | 0.424 ± 0.2
UGAUAGCAAUAUUACGGCUC | -2.21 ± 0.15 | -1.29 ± 0.17
UGAUAGCAAUAUUACGGGAU | -2.03 ± 0.17 | -2.15 ± 0.26
UGAUAGCAAUAUUACGGGUU | -3.88 ± 0.23 | -1.98 ± 0.17
UGAUAGCAAUAUUACGGUAC |  | -2.12 ± 0.42
UGAUAGCAAUAUUACGUAAU | -4.31 ± 0.46 | -1.99 ± 0.21
UGAUAGCAAUAUUACGUGUC | -3.92 ± 0.28 | -2.49 ± 0.26
UGAUAGCAAUAUUACGUUAA | -2.02 ± 0.21 | -2.15 ± 0.26
UGAUAGCAAUAUUACGUUAC | -3.01 ± 0.31 | -1.08 ± 0.22
UGCAAGCAAUAUUACGAAAG | -2.6 ± 0.12 | -1.53 ± 0.13
UGCAAGCAAUAUUACGAACA | -1.23 ± 0.094 | 0.193 ± 0.13
UGCAAGCAAUAUUACGAACU | -0.489 ± 0.14 | 0.0308 ± 0.12
UGCAAGCAAUAUUACGACAG | -0.739 ± 0.066 | -0.13 ± 0.092
UGCAAGCAAUAUUACGACCC | -2.05 ± 0.49 | 0.223 ± 0.43
UGCAAGCAAUAUUACGAGCC | -1.39 ± 0.11 | -1.52 ± 0.14
UGCAAGCAAUAUUACGAUCG | -0.2 ± 0.07 | 0.647 ± 0.093
